According to US7070972 (US Dept. of Health and Human Services, dated 2006):

What was measured:
[1] = biological target: T1, common γ chain of the IL-2 receptor, wild type (UniProt P31785 23-369, limits assumed); test: co-immunoprecipitation from YT cell lysates with R878, JAK-3 Western blot
T1 construct: whole, on cells; Tested in cell lysates; also called wild type γc
T1 sequence (looked up): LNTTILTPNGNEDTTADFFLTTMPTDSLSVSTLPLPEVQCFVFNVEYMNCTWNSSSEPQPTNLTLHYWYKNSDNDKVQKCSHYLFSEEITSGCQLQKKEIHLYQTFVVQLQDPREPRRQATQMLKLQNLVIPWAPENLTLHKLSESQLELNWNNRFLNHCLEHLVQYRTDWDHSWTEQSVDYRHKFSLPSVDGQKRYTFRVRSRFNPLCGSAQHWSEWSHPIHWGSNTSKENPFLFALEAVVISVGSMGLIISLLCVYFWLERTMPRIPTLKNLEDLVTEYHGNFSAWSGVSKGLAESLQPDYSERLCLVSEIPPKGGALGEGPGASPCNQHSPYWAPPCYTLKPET

[2] = biological target: T2, JAK-1 (UniProt P23458 1-1154, limits assumed); test: anti-Tac immunoprecipitation, JAK-1 Western blot, COS-7 cotransfectants
T2 construct: whole, on cells; Tested in cell lysates
T2 sequence (P23458 whole entry): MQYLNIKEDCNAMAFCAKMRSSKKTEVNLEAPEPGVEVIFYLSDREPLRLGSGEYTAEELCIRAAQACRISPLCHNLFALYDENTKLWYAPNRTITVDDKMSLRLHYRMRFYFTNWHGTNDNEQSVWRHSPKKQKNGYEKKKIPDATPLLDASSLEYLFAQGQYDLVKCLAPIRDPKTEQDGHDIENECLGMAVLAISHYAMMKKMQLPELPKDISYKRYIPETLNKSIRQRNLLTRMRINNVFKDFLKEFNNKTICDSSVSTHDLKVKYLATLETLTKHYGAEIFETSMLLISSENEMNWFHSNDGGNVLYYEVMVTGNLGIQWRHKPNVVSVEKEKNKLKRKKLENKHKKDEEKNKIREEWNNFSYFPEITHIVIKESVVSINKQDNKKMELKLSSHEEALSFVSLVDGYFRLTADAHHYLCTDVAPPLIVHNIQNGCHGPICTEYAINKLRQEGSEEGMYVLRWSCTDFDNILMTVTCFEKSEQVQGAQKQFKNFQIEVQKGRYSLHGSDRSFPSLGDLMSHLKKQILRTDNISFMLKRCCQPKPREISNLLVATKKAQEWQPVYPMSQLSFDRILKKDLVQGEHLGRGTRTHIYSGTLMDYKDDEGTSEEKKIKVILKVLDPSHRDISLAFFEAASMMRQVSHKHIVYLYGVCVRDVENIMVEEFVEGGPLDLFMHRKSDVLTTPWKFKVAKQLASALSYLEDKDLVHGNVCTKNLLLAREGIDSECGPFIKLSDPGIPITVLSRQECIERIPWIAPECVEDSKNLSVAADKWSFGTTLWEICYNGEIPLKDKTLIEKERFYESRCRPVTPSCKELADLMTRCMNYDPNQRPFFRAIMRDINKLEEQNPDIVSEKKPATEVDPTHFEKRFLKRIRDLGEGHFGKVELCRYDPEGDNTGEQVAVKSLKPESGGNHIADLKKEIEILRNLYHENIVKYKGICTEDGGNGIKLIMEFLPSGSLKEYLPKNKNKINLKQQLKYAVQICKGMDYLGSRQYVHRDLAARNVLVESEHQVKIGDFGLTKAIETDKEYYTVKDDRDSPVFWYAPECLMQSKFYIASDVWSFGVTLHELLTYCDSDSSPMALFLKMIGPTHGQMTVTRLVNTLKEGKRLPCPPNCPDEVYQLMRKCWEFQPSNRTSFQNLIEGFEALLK

B1: JAK-3 protein (enzyme)
chain: MAPPSEETPLIPQRSCSLLSTEAGALHVLLPARAPGPPQRLSFSFGDHLAEDLCVQAAKASGILPVYHSLFALATEDLSCWFPPSHIFSVEDASTQVLLYRIRFYFPNWFGLEKCHRFGLRKDLASAILDLPVLEHLFAQHRSDLVSGRLPVGLSLKEQGECLSLAVLDLARMAREQAQRPGELLKTVSYKACLPPSLRDLIQGLSFVTRRAIRRTVRRALPRVAACQADRHSLMAKYIMDLERLDPAGAAETFHVGLPGALGGHDGLGLLRVAGDGGIAWTQGEQEVLQPFCDFPEIVDISIKQAPRVGPAGEHRLVTVTRTDNQILEAEFPGLPEALSFVALVDGYFRLTTDSQHFFCKEVAPPRLLEEVAEQCHGPITLDFAINKLKTGGSRPGSYVLRRSPQDFDSFLLTVCVQNPLGPDYKGCLIRRSPTGTFLLVGLSRPHSSLRELLATCWDGGLHVDGVAVTLTSCCIPRPKEKSNLIVVQRGHSPPTSSLVQPQSQYQLSQMTFHKIPADSLEWHENLGHGSFTKIYRGCRHEVVDGEARKTEVLLKVMDAKHKNCMESFLEAASLMSQVSYRHLVLLHGVCMAGDSTMVQEFVHLGAIDMYLRKRGHLVPASWKLQVVKQLAYALNYLEDKGLPHGNVSARKVLLAREGADGSPPFIKLSDPGVSPAVLSLEMLTDRIPWVAPECLREAQTLSLEADKWGFGATVWEVFSGVTMPISALDPAKKLQFYEDRQQLPAPKWTELALLIQQCMAYEPVQRPSFRAVIRDLNSLISSDYELLSDPTPGALAPRDGLWNGAQLYACQDPTIFEERHLKYISQLGKGNFGSVELCRYDPLAHNTGALVAVKQLQHSGPDQQRDFQREIQILKALHSDFIVKYRGVSYGPGRPELRLVMEYLPSGCLRDFLQRHRARLDASRLLLYSSQICKGMEYLGSRRCVHRDLAARNILVESEAHVKIADFGLAKLLPLDKDYYVVREPGQSPIFWYAPESLSDNIFSRQSDVWSFGVVLYELFTYCDKSCSPSAEFLRMMGCERDVPALCRLLELLEEGQRLPAPPACPAEVHELMKLCWAPSPQDRPSFSALGPQLDMLWSGSRGCETHAFTAHPEGKHHSLSFS
notes: Intracellular kinase of 1124 residues; Tested as the endogenous protein in lysates of HUT-78, YT, NK and NK3.3 cells, or as recombinant protein in lysates of transfected COS-7 cells; also called L-JAK; human JAK-3
B1: binds [1].

B2: chimeric α/γ/γ receptor chain (receptor, UniProt P01589 22-240, looked up)
chain: ELCDDDPPEIPHATFKAMAYKEGTMLNCECKRGFRRIKSGSLYMLCTGNSSHSSWDNQCQCTSSATRNTTKQVTPQPEEQKERKTTEMQSPMQPVDQASLPGHCREPPPWENEATERIYHFVVGQMVYYQCVQGYRALHRGPAESVCKMTHGKTRWTQPQLICTGEMETSQFPGEEKPQASPEGRPESETSCLVTTTDFQIQTEMAATMETSIFTTEYQVVISVGSMGLIISLLCVYFWLERTMPRIPTLKNLEDLVTEYHGNFSAWSGVSKGLAESLQPDYSERLCLVSEIPPKGGALGEGPGASPCNQHSPYWAPPCYTLKPET
B2: no binding [2].
